Source: article PMC9860685, “α-Crystallin Domains of Five Human Small Heat Shock Proteins (sHsps) Differ in Dimer Stabilities and Ability to Incorporate Themselves into Oligomers of Full-Length sHsps” (International Journal of Molecular Sciences, 2023)
One block for each binder: values may come before it.

Tests used:
[1] = target: the molecule itself; test: SEC; Superdex 75 10/300 GL, 50 mM phosphate pH 7.4, 150 mM NaCl, 2 mM DTT; 25 μL samples of 16–150 μg (25–600 μM per monomer); apparent dissociation constant, dimer to monomers, from a hyperbolic fit of elution volume against the concentration loaded
[2] = target: T1, 3D mutant of HspB1 (S15D, S78D, S82D) (human, UniProt P04792 1-205, S15D | S78D | S82D); test: SEC; full-length sHsp (~19–20 μM per monomer) mixed with ACD (38–110 μM per monomer) in buffer B, 30 min at 42 °C; Superdex 200 Increase column in 50 mM phosphate pH 7.4, 150 mM NaCl, 2 mM DTT; fractions analysed by SDS–PAGE; conditions: both partners purified
T1 construct: human HspB1, full length, with three phosphomimicking point mutations; Forms small oligomers (probably dimers or tetramers, by cited work); also called full-length 3D mutant
T1 sequence (P04792 whole entry S15D/S78D/S82D): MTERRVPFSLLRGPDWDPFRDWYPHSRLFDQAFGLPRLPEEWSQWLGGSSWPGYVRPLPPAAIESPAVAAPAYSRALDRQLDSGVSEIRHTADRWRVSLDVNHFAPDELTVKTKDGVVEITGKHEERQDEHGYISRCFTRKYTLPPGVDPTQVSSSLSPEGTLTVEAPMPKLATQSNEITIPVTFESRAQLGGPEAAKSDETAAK

[3] = target: the molecule itself; test: cross-linking; glutaraldehyde 0.008% or 0.024%, ACDs at 3 mg/mL in 25 mM HEPES pH 7.5, 30 min at 30 °C; Tricine–SDS–PAGE
full-length HspB6 = target: T2, full-length HspB6 (human, UniProt O14558 1-160); test: native gel or EMSA; clear native PAGE, 12.5% gel, 80 mM glycine–Tris pH 8.6; sHsp 5–6 μM per monomer mixed with ACD 20–24 μM per monomer, 30 min at 25 °C in buffer B; Western blot with anti-HspB6 for the complexes of HspB6; conditions: both partners purified
T2 construct: Predominantly dimeric by cited work; also called B6FL
T2 sequence (looked up): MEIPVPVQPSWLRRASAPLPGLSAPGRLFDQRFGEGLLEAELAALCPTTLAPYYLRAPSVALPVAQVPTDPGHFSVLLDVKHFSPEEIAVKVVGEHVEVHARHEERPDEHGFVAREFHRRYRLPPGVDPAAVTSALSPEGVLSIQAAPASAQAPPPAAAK

binding result [2]: binds
B1: α-crystallin domain of HspB6 (B6ACD) (domain or fragment, human, UniProt O14558 64-149, looked up)
chain: VAQVPTDPGHFSVLLDVKHFSPEEIAVKVVGEHVEVHARHEERPDEHGFVAREFHRRYRLPPGVDPAAVTSALSPEGVLSIQAAPA
notes: human HspB6, α-crystallin domain, residues 64-149; Cloned by NdeI and XhoI into pET23b; In equilibrium of monomers and dimers; also called HspB6 ACD; source: E. coli, purified (ammonium sulfate fractionation, ion-exchange chromatography, size-exclusion chromatography)
Kd [1]: 162 µM

binding result [2]: binds | binding result (full-length HspB6): binds
B2: α-crystallin domain of HspB5 (B5ACD) (domain or fragment, human, UniProt P02511 64-150, looked up)
chain: GLSEMRLEKDRFSVNLDVKHFSPEELKVKVLGDVIEVHGKHEERQDEHGFISREFHRKYRIPADVDPLTITSSLSSDGVLTVNGPRK
notes: human HspB5 (αB-crystallin), α-crystallin domain, residues 64-150; Cloned by NdeI and XhoI into pET23b; In equilibrium of monomers and dimers; also called HspB5 ACD; source: E. coli, purified (ammonium sulfate fractionation, ion-exchange chromatography, size-exclusion chromatography)
stoichiometry N [3]: 2 | Kd [1]: 127 µM
